From patent US11015206B2, “Compositions and methods comprising sequences having hydroxyphenylpyruvate dioxygenase (HPPD) activity” (PIONEER HI-BRED INTERNATIONAL, INC., priority 2014, dated 2021)
Substitutions are numbered along the chain they refer to. In names and notes the source's numbering stands.

B1: 417Q: single substitution G417Q in SEQ ID NO:2 (protein)
chain: MGPTPTATAAGAAVAAASAAEQAAFRLVGHRNFVRFNPRSDRFQTLAFHHVELWCADAASAAGRFSFALGVPLAARSDLSTGNSAHASLLLRSGSLSLLFTAPYAHGADAATAALPSFSAAAARRFAADHGLAVRAVALRVADAEDAFRASVAAGARPAFGPVDLGRGFRLAEVELYGDVVLRYVSYPDGAAGEPFLPGFEGVASPGAADYGLSRFDHIVGNVPELAPAAAYMAGFTGFHEFAEFTTEDVGTTESGLNSMALANNSENVLLPLNEPVHGTKRRSQIQTFLDHHGGPGVQHIALASDDVLRTLREMRARSAMGGFEFLPPPLSDYYDGVRRCAGDVLTEAQINECQELGVMVDRDDQGVLLQIFTKPVGDRPTFFLEIIQRIGCMEKDEKGQEYQKGGCGGFGKGNFQQLFKSIEDYEKSLEAKQAAAAATAQGS
modifications: Zea mays variant form created by artificial means.
B2: 376W: single substitution 376W in SEQ ID NO:2 (protein)
chain: B1 chain with P376W, Q417G
modifications: Zea mays variant form created by artificial means.
B3: 191L: single substitution 191L in SEQ ID NO:2 (protein)
chain: B1 chain with A191L, Q417G
modifications: Zea mays variant form created by artificial means.
B4: 189P: single substitution 189P in SEQ ID NO:2 (protein)
chain: B1 chain with D189P, Q417G
modifications: Zea mays variant form created by artificial means.
B5: 360L: single substitution 360L in SEQ ID NO:2 (protein)
chain: B1 chain with M360L, Q417G
modifications: Zea mays variant form created by artificial means.
B6: 390N: single substitution 390N in SEQ ID NO:2 (protein)
chain: B1 chain with R390N, Q417G
modifications: Zea mays variant form created by artificial means.
B7: 385V: single substitution L385V in SEQ ID NO:2 (protein)
chain: B1 chain with L385V, Q417G
modifications: Zea mays variant form created by artificial means.

Assays:
Format in all cases: biochemical, Z. mays
[1] = tested on: 4-hydroxyphenylpyruvate dioxygenase (HPPD); test: Estimate of kcat from initial rate at saturating hydroxyphenylpyruvate without inhibitor (ON rate ratio assay); conditions: Table 5; single substitutions in Round 7 variant 9070 (SEQ ID NO:2); estimate from initial rate at saturating hydroxyphenylpyruvate without inhibitor
Outline: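 Reactions used 60 or 120 nM HPPD and saturating 100 μM hydroxyphenylpyruvate without inhibitor. kcat was estimated from the initial rate at the known enzyme concentration.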

[2] = tested on: 4-hydroxyphenylpyruvate dioxygenase (HPPD); test: HPPD activity coupled assay with HGD; substrate saturation kinetic parameters (kcat, KM); conditions: Table 6; for kcat: single substitutions in SEQ ID NO:2
Outline: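 Coupled continuous assay: His-tagged HPPD (5 to 240 nM, E. coli-expressed, Ni-NTA-purified) with 50 nM P. aeruginosa HGD in 25 mM Hepes pH 7, 2 mM ascorbate, 10 μM FeSO4; maleylacetoacetate followed at 320 nm. KM and Vmax from Lineweaver-Burke fits over 3.33–100 μM HPP.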

[3] = tested on: 4-hydroxyphenylpyruvate dioxygenase (HPPD); test: ON rate ratio: HPPD reaction rate with vs without inhibitor in the 70 to 90 second interval; conditions: Table 5; tembotrione
Outline: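 Time courses of HPPD reactions, 60 or 120 nM enzyme with 100 μM HPP substrate, run with and without 4 μM inhibitor (e.g. mesotrione, tembotrione). Value is the rate with inhibitor over rate without, taken over 70–90 s; higher ratio reflects slower kON.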

[4] = tested on: 4-hydroxyphenylpyruvate dioxygenase (HPPD); test: OFF rate ratio: release of inhibitor from pre-formed enzyme-inhibitor complex; conditions: Table 5; tembotrione
Outline: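 HPPD (7.2 μM) pre-incubated 1 h at RT with inhibitor (8 μM), then diluted into 25 mM Hepes pH 7, 2 mM ascorbate, 10 μM FeSO4, 100 μM HPP, 50 nM HGD; A320 followed 12 min. Ratio = steady-state rate with inhibitor over initial rate of inhibitor-free enzyme.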

[5] = tested on: 4-hydroxyphenylpyruvate dioxygenase (HPPD); test: Insensitivity parameter (ON × OFF) and trait fitness (ON × OFF × kcat/KM or × kcat); conditions: for ON × OFF × kcat, Value / ON × OFF × kcat, Fold vs wt / ON × OFF, fold vs wt / ON × OFF (parameters with tembotrione): Table 5, tembotrione; for ON × OFF × kcat, Fold vs wt / ON × OFF, fold vs wt: fold vs maize wild type HPPD; for ON × OFF (parameters with tembotrione): insensitivity parameter
Outline: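 Calculated, not measured directly: ON rate ratio × OFF rate ratio gives an insensitivity parameter serving as a KD surrogate.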

[6] = DKN (diketonitrile form of isoxaflutole)
[7] = DKN (isoxaflutole diketonitrile)

Molecule | kcat [1] [s⁻¹] | Km [2] [µM] | kcat [2] [s⁻¹] | ON ratio (parameters with tembotrione) [3] | OFF ratio (parameters with tembotrione) [4] | Insensitivity parameter, ON × OFF [5, 6] | ON × OFF × kcat/km fold vs Round 7, variant 9070 [5, 7] | Insensitivity parameter, ON × OFF ([5]; Mesotrione, Table 6) | ON × OFF × kcat/km fold vs Round 7, variant 9070 ([5]; Sulco (sulcotrione)) | Insensitivity parameter, ON × OFF ([5]; Sulcotrione) | ON × OFF × kcat, Value [5] | ON × OFF × kcat, Fold vs wt [5] | ON × OFF, fold vs wt [5] | ON × OFF (parameters with tembotrione) [5] | Insensitivity parameter, ON × OFF ([5]; Tembotrione) | ON × OFF × kcat/km fold vs Round 7, variant 9070 ([5]; Topra (topramezone)) | Insensitivity parameter, ON × OFF ([5]; Topramezon) | ON × OFF × kcat/km fold vs Round 7, variant 9070 ([5]; meso (mesotrione)) | ON × OFF × kcat/km fold vs Round 7, variant 9070 ([5]; tembo (tembotrione))
B1 | 0.343 | 1.56 | 0.558 | 0.74 | 0.27 | 0.39 | 1.0 | 0.73 | 1.2 | 0.74 | 4.04 | 3.77 | 38.4 | 0.20 | 0.33 | 1.4 | 0.39 | 1.5 | 1.5
B2 | 0.385 | 5.51 | 0.602 | 0.68 | 0.34 | 0.37 | – | 0.39 | – | 0.16 | 5.42 | 5.07 | 46.0 | 0.23 | 0.31 | – | 0.32 | – | –
B3 | 0.358 | 2.74 | 0.548 | 0.77 | 0.20 | 0.38 | – | 0.45 | – | 0.56 | 3.35 | 3.13 | 30.5 | 0.16 | 0.33 | – | 0.37 | – | –
B4 | 0.437 | 3.35 | 0.697 | 0.76 | 0.22 | 0.32 | – | 0.51 | – | 0.62 | 4.31 | 4.02 | 32.3 | 0.16 | 0.25 | – | 0.31 | – | –
B5 | 0.442 | 1.71 | 0.543 | 0.77 | 0.22 | 0.34 | – | 0.51 | – | 0.63 | 4.41 | 4.12 | 32.6 | 0.17 | 0.25 | – | 0.32 | – | –
B6 | 0.505 | 2.86 | 0.837 | 0.75 | 0.22 | 0.29 | – | 0.45 | – | 0.58 | 5.00 | 4.67 | 32.4 | 0.17 | 0.20 | – | 0.27 | – | –
B7 | 0.357 | 1.91 | 0.505 | 0.75 | 0.33 | 0.33 | 1.1 | 0.65 | 1.0 | 0.78 | 5.26 | 4.92 | 48.2 | 0.25 | 0.34 | 1.3 | 0.49 | 1.0 | 1.4
